Results as given in IntAct's records for PubMed 29039417.

B1: BBSome complex member BBS5 (Homo sapiens), Q8N3I7 (parent)
chain: MSVLDALWEDRDVRFDLSAQQMKTRPGEVLIDCLDSIEDTKGNNGDRGRLLVTNLRILWHSLALSRVNVSVGYNCILNITTRTANSKLRGQTEALYILTKCNSTRFEFIFTNLVPGSPRLFTSVMAVHRAYETSKMYRDFKLRSALIQNKQLRLLPQEHVYDKINGVWNLSSDQGNLGTFFITNVRIVWHANMNDSFNVSIPYLQIRSIKIRDSKFGLALVIESSQQSGGYVLGFKIDPVEKLQESVKEINSLHKVYSASPIFGVDYEMEEKPQPLEALTVEQIQDDVEIDSDGHTDAFVAYFADGNKQQDREPVFSEELGLAIEKLKDGFTLQGLWEVMS
partner: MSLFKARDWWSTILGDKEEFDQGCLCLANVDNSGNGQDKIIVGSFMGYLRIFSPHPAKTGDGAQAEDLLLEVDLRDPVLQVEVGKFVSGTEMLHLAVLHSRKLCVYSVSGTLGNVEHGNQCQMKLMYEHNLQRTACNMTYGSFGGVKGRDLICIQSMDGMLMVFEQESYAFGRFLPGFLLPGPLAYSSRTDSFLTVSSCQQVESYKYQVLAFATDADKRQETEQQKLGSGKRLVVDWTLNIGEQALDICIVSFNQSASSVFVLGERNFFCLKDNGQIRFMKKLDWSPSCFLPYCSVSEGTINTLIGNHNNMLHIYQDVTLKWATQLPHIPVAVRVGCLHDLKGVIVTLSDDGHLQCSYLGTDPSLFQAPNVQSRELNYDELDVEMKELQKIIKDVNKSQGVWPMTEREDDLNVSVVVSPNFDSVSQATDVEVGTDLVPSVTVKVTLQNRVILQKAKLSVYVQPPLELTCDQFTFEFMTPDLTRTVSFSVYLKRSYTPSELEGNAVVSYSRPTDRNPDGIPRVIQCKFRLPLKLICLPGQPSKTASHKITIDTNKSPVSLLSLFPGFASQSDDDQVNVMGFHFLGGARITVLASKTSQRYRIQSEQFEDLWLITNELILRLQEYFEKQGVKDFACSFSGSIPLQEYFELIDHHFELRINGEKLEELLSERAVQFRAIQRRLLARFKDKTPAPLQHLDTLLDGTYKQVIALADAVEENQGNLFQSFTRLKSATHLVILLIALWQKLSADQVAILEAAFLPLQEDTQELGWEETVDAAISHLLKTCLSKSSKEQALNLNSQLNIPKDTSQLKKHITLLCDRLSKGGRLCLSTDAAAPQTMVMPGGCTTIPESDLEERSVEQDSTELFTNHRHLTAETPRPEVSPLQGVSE
B2: Isoform 2 of Bardet-Biedl syndrome 7 protein (Homo sapiens), Q8IWZ6-2 (parent)
chain: MDLILNRMDYLQVGVTSQKTMKLIPASRHRATQKVVIGDHDGVVMCFGMKKGEAAAVFKTLPGPKIARLELGGVINTPQEKIFIAAASEIRGFTKRGKQFLSFETNLTESIKAMHISGSDLFLSASYIYNHYCDCKDQHYYLSGDKINDVICLPVERLSRITPVLACQDRVLRVLQGSDVMYAVEVPGPPTVLALHNGNGGDSGEDLLFGTSDGKLALIQITTSKPVRKWEIQNEKKRGGILCIDSFDIVGDGVKDLLVGRDDGMVEVYSFDNANEPVLRFDQMLSESVTSIQGGCVGKDSYDEIVVSTYSGWVTGLTTEPIHKESGPGEELKINQEMQNKISSLRNELEHLQYKVLQERENYQQSSQSSKAKSAVPSFGINDKFTLNKDDASYSLILEVQTAIDNVLIQSDVPIDLLDVDKNSAVVSFSSCDSESNDNFLLATYRCQADTTRLELKIRSIEGQYGTLQAYVTPRIQPKTCQVRQYHIKPLSLHQRTHFIDHDRPMNTLTLTGQFSFAEVHSWVVFCLPEVPEKPPAGECVTFYFQNTFLDTQLESTYRKGEGVFKSDNISTISILKDVLSKEATKRKINLNISYEINEVSVKHTLKLIHPKLEYQLLLAKKVQLIDALKELQIHEGNTNFLIPEYHCILEEADHLQEEYKKQPAHLERLYG
partner: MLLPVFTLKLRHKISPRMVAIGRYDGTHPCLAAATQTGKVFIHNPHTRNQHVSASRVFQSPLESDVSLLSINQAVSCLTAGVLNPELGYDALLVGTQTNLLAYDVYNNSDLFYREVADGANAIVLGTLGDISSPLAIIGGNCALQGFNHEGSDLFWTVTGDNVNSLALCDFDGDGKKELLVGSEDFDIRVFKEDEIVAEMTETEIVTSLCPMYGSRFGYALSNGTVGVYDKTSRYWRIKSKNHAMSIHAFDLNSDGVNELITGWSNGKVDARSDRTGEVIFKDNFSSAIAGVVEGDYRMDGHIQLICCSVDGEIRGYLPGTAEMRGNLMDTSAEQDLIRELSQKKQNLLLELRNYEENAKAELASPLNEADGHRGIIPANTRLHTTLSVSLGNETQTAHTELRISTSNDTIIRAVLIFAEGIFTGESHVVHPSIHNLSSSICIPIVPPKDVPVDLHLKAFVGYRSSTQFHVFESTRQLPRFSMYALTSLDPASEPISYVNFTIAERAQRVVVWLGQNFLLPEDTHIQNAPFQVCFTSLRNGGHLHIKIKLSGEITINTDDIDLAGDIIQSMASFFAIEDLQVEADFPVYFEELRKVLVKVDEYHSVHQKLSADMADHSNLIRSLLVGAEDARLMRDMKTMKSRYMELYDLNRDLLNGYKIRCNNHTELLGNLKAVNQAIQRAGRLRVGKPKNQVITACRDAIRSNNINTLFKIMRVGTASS

Variants of: B1
Conditions: with pthb1_human BBS9, Q3SYG4

| effect of a mutation on the interaction | Variant |
| --- | --- |
| with no effect | G330E |
| with no effect | G330K |
| with no effect | G330A |
| with no effect | Q310A |
| with no effect | Q310E |
| with no effect | Q310K |
| with no effect | S341A |
| with no effect | S341K |
| with no effect | S341E |
| with no effect | L333E |
| with no effect | L333A |
| with no effect | L333K |
| with no effect | K308A |
| with no effect | K308E |
| with no effect | M340A |
| with no effect | M340K |
| with no effect | M340E |
| with no effect | R312E |
| with no effect | R312A |
| with no effect | R312K |
| with no effect | D329A |
| with no effect | D329K |
| with no effect | D329E |
| with no effect | V315K |

| effect of a mutation on the interaction | Variant |
| --- | --- |
| with no effect | V315E |
| with no effect | V315A |
| with no effect | W337E |
| with no effect | W337A |
| with no effect | W337K |
| with no effect | K328A |
| with no effect | K328E |
| with no effect | L327E |
| with no effect | L327A |
| with no effect | L327K |
| with no effect | F316E |
| with no effect | F316K |
| with no effect | F316A |
| with no effect | F331K |
| with no effect | F331A |
| disrupting interaction strength | F331E |
| disrupting interaction strength | F331S |
| with no effect | E313A |
| with no effect | E313K |
| with no effect | S317A |
| with no effect | S317E |
| with no effect | S317K |
| with no effect | L320K |
| with no effect | L320A |

| effect of a mutation on the interaction | Variant |
| --- | --- |
| with no effect | L320E |
| with no effect | I324E |
| with no effect | I324A |
| with no effect | I324K |
| with no effect | V339A |
| with no effect | V339K |
| with no effect | V339E |
| with no effect | L336A |
| with no effect | L336K |
| with no effect | L336E |
| with no effect | E318K |
| with no effect | E318A |
| with no effect | K326A |
| with no effect | K326E |
| disrupting interaction strength | A323E |
| with no effect | A323K |
| with no effect | G335K |
| with no effect | G335E |
| with no effect | G335A |
| with no effect | Q334E |
| with no effect | Q334K |
| with no effect | Q334A |
| with no effect | G321E |
| with no effect | G321A |

| effect of a mutation on the interaction | Variant |
| --- | --- |
| with no effect | G321K |
| with no effect | Q309A |
| disrupting interaction strength | Q309K |
| with no effect | Q309E |
| with no effect | E319A |
| with no effect | E319K |
| with no effect | E325K |
| with no effect | E325A |
| with no effect | D311E |
| with no effect | D311K |
| with no effect | D311A |
| with no effect | N307K |
| with no effect | N307E |
| with no effect | E338A |
| with no effect | E338K |
| with no effect | T332E |
| with no effect | T332K |
| with no effect | T332A |
| with no effect | L322E |
| disrupting interaction strength | L322K |
| with no effect | L322A |
| with no effect | P314K |
| with no effect | P314A |
| with no effect | P314E |

Variants of: B2
Conditions: with bbs2_human BBS2, Q9BXC9

| effect of a mutation on the interaction | Variant |
| --- | --- |
| with no effect | I626A |
| with no effect | Q448E |
| with no effect | C432K |
| with no effect | V525A |
| with no effect | N340E |
| with no effect | A392K |
| with no effect | Q353A |
| with no effect | P505E |
| with no effect | D419K |
| with no effect | K355E |
| with no effect | S378K |
| with no effect | F517K |
| with no effect | T444E |
| with no effect | N382A |
| with no effect | F543E |
| disrupting interaction strength | I458E |
| with no effect | S567A |
| with no effect | L617A |
| with no effect | K586E |
| with no effect | Y660A |
| with no effect | P490K |
| with no effect | S601E |

| effect of a mutation on the interaction | Variant |
| --- | --- |
| with no effect | E519A |
| with no effect | T402K |
| with no effect | S370K |
| with no effect | T548A |
| with no effect | L511K |
| disrupting interaction strength | L511P |
| with no effect | K333A |
| with no effect | S434A |
| with no effect | S594E |
| with no effect | L387E |
| with no effect | L387K |
| with no effect | A470K |
| with no effect | K384A |
| with no effect | K384E |
| with no effect | A628K |
| with no effect | G329K |
| with no effect | G329A |
| with no effect | Q368K |
| with no effect | S393E |
| with no effect | S367A |
| with no effect | S367K |
| with no effect | N335K |

| effect of a mutation on the interaction | Variant |
| --- | --- |
| with no effect | V427A |
| with no effect | N347K |
| with no effect | E614K |
| with no effect | G563A |
| with no effect | Y646K |
| with no effect | Q553K |
| with no effect | D383A |
| with no effect | K588A |
| with no effect | V407K |
| with no effect | L417E |
| with no effect | L417A |
| with no effect | Q358E |
| with no effect | L618E |
| with no effect | S522A |
| with no effect | D501E |
| with no effect | E331A |
| with no effect | P644K |
| with no effect | T512E |
| with no effect | I643A |
| with no effect | E658A |
| with no effect | H487E |
| with no effect | N569E |

| effect of a mutation on the interaction | Variant |
| --- | --- |
| with no effect | S344A |
| with no effect | E636K |
| with no effect | Q663K |
| with no effect | I570E |
| with no effect | K661E |
| with no effect | Y595A |
| with no effect | E533A |
| with no effect | L528K |
| with no effect | Q339E |
| with no effect | S424A |
| with no effect | N592E |
| with no effect | S574A |
| with no effect | E652K |
| with no effect | K612E |
| with no effect | S581E |
| with no effect | F515A |
| with no effect | L625K |
| with no effect | Q477K |
| with no effect | E596K |
| with no effect | D390E |
| with no effect | Y465A |
| with no effect | L629E |

Variants of: B2
Conditions: with bbs2_human BBS2, Q9BXC9
Remark: another data set of the same source

| effect of a mutation on the interaction | Variant |
| --- | --- |
| with no effect | I458E |
